Results on three molecules are retold here after PMC4220969, “Structural basis for the recognition of muramyltripeptide by Helicobacter pylori Csd4, a D,L-carboxypeptidase controlling the helical cell shape” (Acta Crystallographica Section D: Biological Crystallography, 2014).

As a reminder, the Kd is the concentration at which binding is half-saturated.

Where no end group is shown, it is not given here. [ ]: non-standard residue; d: D form. The star is where a group is joined. FITC = O=C1OC2(c3ccc(O)cc3Oc3cc(O)ccc32)c2ccc(NC(=S)*)cc21

The target of experiment [1] is FITC-labelled dipeptide (FITC-L-Ala-D-Glu). Description: fluorescence polarisation; FITC-labelled dipeptide at 9.2 nM, Csd5 titrated from 17.0 nM to 17.4 µM, 10 mM HEPES pH 7.5, 100 mM sodium chloride. For orientation: Polarisation of emitted light reports the rotation of a fluorescent probe.
A further experiment has as its target T1, Csd5 (Helicobacter pylori, UniProt O25843).
T1 construct: gene HP_1250
Description: fluorescence polarization. The class given is binding. As to conditions: labelled compound; 9.2 nM FITC-dipeptide, 10 mM HEPES pH 7.5, 100 mM NaCl.

Experiment [2] concerns the target T2, Helicobacter pylori Csd4 (HP1075 in strain 26695), recombinant, residues Met22-Val438 (Helicobacter pylori strain 26695, UniProt O25708 22-438).
T2 construct: Csd4 (HP1075) from H. pylori strain 26695, residues Met22-Val438; the N-terminal 19 residues are a predicted signal peptide and are not in the construct; No cleavage of the tag is described; also called D,L-carboxypeptidase; source: E. coli Rosetta2(DE3), purified (HiTrap Chelating HP, HiTrap SP HP, Superdex 200)
T2 sequence (looked up): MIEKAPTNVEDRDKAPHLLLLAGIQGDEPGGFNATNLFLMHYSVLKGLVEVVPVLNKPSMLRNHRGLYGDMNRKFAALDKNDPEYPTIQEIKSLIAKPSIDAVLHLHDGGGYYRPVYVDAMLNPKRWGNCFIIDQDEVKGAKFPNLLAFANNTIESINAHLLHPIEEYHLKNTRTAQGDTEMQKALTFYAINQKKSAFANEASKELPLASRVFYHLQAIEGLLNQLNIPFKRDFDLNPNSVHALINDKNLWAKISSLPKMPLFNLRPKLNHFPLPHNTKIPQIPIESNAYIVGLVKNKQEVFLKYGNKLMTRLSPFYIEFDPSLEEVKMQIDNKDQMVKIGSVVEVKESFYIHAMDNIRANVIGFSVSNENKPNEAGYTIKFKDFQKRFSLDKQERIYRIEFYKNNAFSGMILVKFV
Description: SPR; as a1, EDTA-treated Csd4-immobilised chip retreated with running buffer containing 5 mM calcium chloride. As to conditions: both partners purified.

Experiment [3] concerns the target T2, Helicobacter pylori Csd4 (HP1075 in …). Description: SPR; Csd4 immobilised by amine coupling on a carboxymethyl dextran chip, Csd5 as analyte (0.25-2.00 µM), 10 mM HEPES pH 7.5, 100 mM sodium chloride, 25°C; BSA reference subtracted. Particulars: both partners purified. On the technique in general: Surface plasmon resonance follows binding to a sensor surface in real time, without labels.

In turn, “Helicobacter pylori Csd5 (HP1250 in strain 26695), N-terminal 40-residue-truncated construct, residues Ser41-Glu192 (from UniProt O25843 41-192) (domain or fragment)” yielded a Kd in experiment [1] of 1690 nM.
{FITC}-Ala-[dE]: the dissociation constant Kd on Csd5 was around 1690 nM.

B1: Helicobacter pylori Csd5 (HP1250 in strain 26695), N-terminal 40-residue-truncated construct, residues Ser41-Glu192 (domain or fragment, Helicobacter pylori strain 26695, UniProt O25843 41-192, looked up)
chain: SAPISPNVEKTETERQNGVLSPKQEEANATTTATEESPTKDTAPPLDTAAQKQETKQEQEKENEPKQDSVPPVQNNQKTPTTPLMGKKPLEYKVAVSGVNVRAFPSTKGKILGLLLKNKSVKVLEIQNDWAEIEFSHETKGYVFLKLLKKAE
notes: Csd5 (HP1250) from H. pylori strain 26695, residues Ser41-Glu192; lacks the predicted transmembrane region (Pro15-Val37); No cleavage of the tag is described; source: E. coli, overexpressed and purified essentially as Csd4 (gel filtration in 10 mM HEPES pH 7.5, 100 mM sodium chloride)
B1: the Kd in experiment [2] was around 4300 nM; in experiment [3], around 4500 nM.
